Test results as given in PMC10160029, “Engineered repeat proteins as scaffolds to assemble multi-enzyme systems for efficient cell-free biosynthesis” (Nature Communications, 2023).

Experiments:
TRAP1-3 = target: T1, TRAP1-3; test: fluorescence anisotropy of NADH; type: binding; details: PBS (150 mM NaCl, 50 mM phosphate) pH 7.4, 25 °C, 1 µM NADH titrated with 0-100 µM TRAP1-3; one-site fit
T1 construct: designed fusion of TRAP1 and TRAP3 TPR modules, synthetic gene in pET-28b(+), E. coli C41, Ni-NTA; His-tag kept in assembly; mass 32,621 (kDa [sic])

[1] = target: FDH1: formate dehydrogenase from Candida boidinii with peptide-1 (MEEVV) fused to its C-terminus (Candida boidinii); test: SEC; each tagged enzyme alone; molecular weight estimated from the elution
purified protein [2] = substrate: CC(=O)C(=O)O; test: purified protein; type: biochemical, Geobacillus stearothermophilus; details: saturating NADH, 500 mM ammonium chloride, 25 mM potassium phosphate pH 8.0, 30 °C, AlaDH3 bound alone to TRAP1-3, apparent, substrate inhibition fit
purified protein [3] = substrate: NC(=O)C1=CN([C@@H]2O[C@H](COP(=O)(O)OP(=O)(O)OC[C@H]3O[C@@H](n4cnc5c(N)ncnc54)[C@H](O)[C@@H]3O)[C@@H](O)[C@H]2O)C=CC1; test: purified protein; type: biochemical, Geobacillus stearothermophilus; details: saturating pyruvate, 500 mM ammonium chloride, 25 mM potassium phosphate pH 8.0, 30 °C, AlaDH3 bound alone to TRAP1-3, apparent
purified protein [4] = substrate: NC(=O)c1ccc[n+]([C@@H]2O[C@H](COP(=O)(O)OP(=O)(O)OC[C@H]3O[C@@H](n4cnc5c(N)ncnc54)[C@H](O)[C@@H]3O)[C@@H](O)[C@H]2O)c1; test: purified protein; type: biochemical, [Candida] boidinii; details: saturating formate, 25 mM sodium phosphate pH 7.0, 30 °C, FDH1 bound alone to TRAP1-3, apparent
purified protein [5] = substrate: O=CO; test: purified protein; type: biochemical, [Candida] boidinii; details: saturating NAD+, 25 mM sodium phosphate pH 7.0, 30 °C, FDH1 bound alone to TRAP1-3, apparent
[6] = target: the molecule itself; test: SEC; each tagged enzyme alone; molecular weight estimated from the elution

Q: How did the Kd (TRAP1-3) turn out when `NC(=O)C1=CN([C@@H]2O[C@H](COP(=O)(O)OP(=O)(O)OC[C@H]3O[C@@H](n4cnc5c(N)ncnc54)[C@H](O)[C@@H]3O)[C@@H](O)[C@H]2O)C=CC1` [NADH] was run?
A: The Kd was 34.9 µM.

Q: Which stoichiometry N [1] does the source give for “FDH1: formate dehydrogenase from Candida boidinii with peptide-1 (MEEVV) fused to its C-terminus (enzyme)” here?
A: The stoichiometry N was 2.

B1: AlaDH3@TRAP (Geobacillus stearothermophilus) (protein)
chain: MKIGIPKEIKNNENRVAITPAGVMTLVKAGHEVYVETEGGAGSGFSDSEYEKAGAADRCRTWRDAWTAEMVLKVKEPLAREFRYFRPGLILFTYLHLAAAERVTKAVVEQKVVGIAYETVQLANGSLPLLTPMSEVAGRMSVQVGAQFLEKPHGGKGILLGGVPGVRRGKVTIIGGGTAGTNAAKIGVGLGADVTILDINAERLRELDDLFGDHVTTLMSNSYHIAECVRESDLVVGAVLIPGAKAKLVTEEMVRSMTPGSVLVDIAIDQGGIFETTDRVTTHDDPTYVKHGVVHYAVANMPGAVPRTSTFALTNVTIPYALQIANKGYRAGCLDNPALLKGINTLDGHIVYEAVAAAHNMPYTDVHSLLHG
notes: AlaDH with C-terminal peptide-3 tag MRRVW, pET-28b(+), E. coli C41, Ni-NTA, His-tag removed by TEV; mass 44,323 (kDa [sic]); hexamer
Q: Which results are given for B1?
A: Km (purified protein [2]): 390 ± 50 µM; Vmax (purified protein [2]): 41.3 µmol/min/mg; kcat (purified protein [2]): 30.6 ± 1.9 s⁻¹; kcat/Km (purified protein [2]): 79000 M⁻¹ s⁻¹; Km (purified protein [3]): 360 ± 70 µM; Vmax (purified protein [3]): 94.3 µmol/min/mg; kcat (purified protein [3]): 69.9 ± 4.7 s⁻¹; kcat/Km (purified protein [3]): 190000 M⁻¹ s⁻¹

B2: FDH1@TRAP ([Candida] boidinii) (protein)
chain: MKIVLVLYDAGKHAADEEKLYGCTENKLGIANWLKDQGHELITTSDKEGGNSVLDQHIPDADIIITTPFHPAYITKERIDKAKKLKLVVVAGVGSDHIDLDYINQTGKKISVLEVTGSNVVSVAEHVLMTMLVLVRNFVPAHEQIINHDWEVAAIAKDAYDIEGKTIATIGAGRIGYRVLERLVPFNPKELLYYDYQALPKDAEEKVGARRVENIEELVAQADIVTINAPLHAGTKGLINKELLSKFKKGAWLVNTARGAICVAEDVAAALESGQLRGYGGDVWFPQPAPKDHPWRDMRNKYGAGNAMTPHYSGTTLDAQTRYAEGTKNILESFFTGKFDYRPQDIILLNGEYITKAYGKHDKK
notes: FDH with C-terminal peptide-1 tag MEEVV, pET-28b(+), E. coli C41, Ni-NTA, His-tag removed by TEV; mass 45,137 (kDa [sic]); dimer; 5DNA as structure used for illustration
Q: With B2 as the molecule, how does the Km (purified protein [4]) read?
A: The Km was 270 ± 100 µM.

Q: What about the Vmax (purified protein [4]) of the same molecule?
A: Its Vmax is 1.23 µmol/min/mg.

Q: And the kcat (purified protein [4])?
A: Its kcat is 0.9 ± 0.3 s⁻¹.

Q: What about the kcat/Km (purified protein [4]) of the same molecule?
A: The kcat/Km was 3500 M⁻¹ s⁻¹.

Q: And the Km (purified protein [5])?
A: Its Km is 2420 ± 1070 µM.

Q: And the Vmax (purified protein [5])?
A: Its Vmax is 0.95 µmol/min/mg.

Q: What about the kcat (purified protein [5]) of the same molecule?
A: The kcat was 0.7 ± 0.2 s⁻¹.

Q: And the kcat/Km (purified protein [5])?
A: The kcat/Km was 290 M⁻¹ s⁻¹.

B3: AlaDH3: alanine dehydrogenase from Bacillus stearothermophilus with peptide-3 (MRRVW) fused to its C-terminus (enzyme)
chain: MKIGIPKEIKNNENRVAITPAGVMTLVKAGHDVYVETEAGAGSGFSDSEYEKAGAVIVPNAEDAWTAEMVLKVKEPLAEEFRYFRPGLILFTYLHLAAAEALTKALVEQKVVGIAYETVQLANGSLPLLTPMSEVAGRMSVQVGAQFLEKPHGGKGILLGGVPGVRRGKVTIIGGGTAGTNAAKIAVGLGSDVTILDINAERLRELDDLFGDHVTTLMSNSYHIAECVRESDLVVGAVLIPGAKAPKLVTEEMVRSMTPGSVLVDIAIDQGGIFETTDRVTTHDDPTYVKHGVVHYAVANMPGAVPRTSTFALTNVTIPYALQIANKGYRAACLDNPALLKGINTLDGHIVYEAVAAAHNMPYTDVHSLLHGMRRVW
Q: With B3 as the molecule, how does the “stoichiometry N” value [6] read?
A: Its value is 6.
